{
  "source": "the DeepSol protein solubility set",
  "data": [
    {"assay": "soluble on expression in E. coli; label from the status in PepcDB or PDB records", "values": [
      {"sequence": "MEGIMNPYTALPTPQQLLAIEQSVYSSDPFRQGLTPPQMPGDHMHPYGAEPLFHDLDSDDTSLSNLGDCFLATSEAGPLQSRVGNPIDHLYSMQNSYFTS", "soluble on expression in E. coli": "soluble"},
      {"sequence": "MATNKREKQLERECHEQKTSQAVCETKEELEKSWKDFQKVSNEYKEAVTACRKYVEEKSRPKRTVLDGDMGEPTEDQEDTNDHARRRRHHNHEGHHGNDMKHRENMDRKKHGTHVDHHGRVRRNGDHDPNDPNVDHTGHNHRVKRSIDDDPSDTTIDHTRHNHRRKRNQDDDPTDTTIDHTGHNHRRRRSDDHDPNDPNVDHTGHNHRRKRNHDDDPSDTTIDHTGHNHRRRRSDDHDPNDPNVDHIGHNHHRRKRNHDDDPSDTTIDHTGHNHRRRRSEDHDPNDPNVDHTGHNHRRRRDQDDDPSDTTIDHTGHNHRRRRSDDHDPNDPNVDHTGHNHKRRHVIASRSRRTVCSTAGHDQLSAMSSKFTKHCERENICLPDEDLPKGKQQDDILALQKLRAKKYSEYLTQVSKCYGKLHGQSSGNDSWAPSAQSQEQYNPVYPSLSGTPNFFSSSAQAYEAAPYYPAKSTAAKTTSKPVQKPYRRHHQRPNKAWSSGSQQFHLVTIDPSKPHEKPSVSKIAEAAPKPIFKVARGTVKTVNKRGTKGVQKMPNHRLEGNSWETNGLQNQTARGGGGGRGRGRGSGGRGRGGFNRGGRFNGAPKPSNNKDDIPYVHLPDDSPAITLNVSSENITAFHGFDSVFTTKHNFPVLIDNKIYGSCDHYYQICKVTDLTGVSSDKLNRGVRDENGKPIVETIEDAEKKSHSALAKDIIKAANISKEKVDEWRNSKGLETIQKALHAKVTQSAHLREALKESGDNILVHAFARDSIYGTGCTIPAIKKWLDDLSKAGVKHLKIPATFPLNKTTVQHCPVFAQGRNVLGVILMQLRQKISSGEIQVVDMSRIFNALRVNNAPAEPMDTSSKFGFISDTKSIGTF", "soluble on expression in E. coli": "not soluble"},
      {"sequence": "MNRIEHYHDWLRDAHAMEKQAESMLESMASRIDNYPELRARIEQHLSETKNQIVQLETILDRNDISRSVIKDSMSKMAALGQSIGGIFPSDEIVKGSISGYVFEQFEIACYTSLLAAAKNAGDTASIPTIEAILNEEKQMADWLIQNIPQTTEKFLIRSETDGVEAKK", "soluble on expression in E. coli": "soluble"},
      {"sequence": "FDKVKVSTNFTYTLNQNKIVSLANGAINPETGEAIEMEYYSKGTLGTSGGPTLRLYENGSMGDIYINQRLRQSPNGYIWKDPSNGSLAIENTEYRKVGSILPKYYLGWNGSVAWKGWNLGFAFTGRFGGLVVSDTQAMIDKYGVSESSAVARQAGGVWVGDSKVDAEEYYSKVTTAVGTYYTYSATNIRLSELSLSYQLPKTWFKNHVNMTLGLTGKNLWMIYCKAPYDPESTSSVTSNFYQGVDYFQQPSLRSLGFNVKLTF", "soluble on expression in E. coli": "not soluble"},
      {"sequence": "MSSKPRHDWFQSETDVTLTILKRGVPLDDCSVSLSDNNTLTVKQCDEILFYGQLSGQVKKDDLTVKCTAAKVEVRLPKFARNERWASLLKDGQGVAASVQSVSPNPESAPTTTVKKNWDAIEKQAVKEEEDESLEGDAAVNKMFRKMYNDASDDVRRAMMKSYSESNGTVLSTNWSEIGQKKTECQPPACMEYKEYEK", "soluble on expression in E. coli": "not soluble"},
      {"sequence": "VDLGGVRRRISLMARQHGPTAQRHVASPMTVDIARLGRRPGAMFELHDTVHSPARIGLELIAIDQGALLDLDLRVESVSEGVLVTGTVAAPTVGECARCLSPVRGRVQVALTELFAYPDSATDETTEEDEVGRVVDETIDLEQPIIDAVGLELPFSPVCRPDCPGLCPQCGVPLASEPGHRHEQIDPRWAKLVEMLGPESDTLRGER", "soluble on expression in E. coli": "not soluble"},
      {"sequence": "MKNDVISPEFDENGRPLRRIRSFVRRQGRLTKGQEHALENYWPVMGVEFSEAPVDFATLFGREAPVTLEIGFGMGASLVAMAKARPEQNFLGIEVHSPGVGACLASANEEGVENLRVMCHDAVEVLHKMIPDNSLSMVQLFFPDPWHKARHNKRRIVQVPFAELVLSKLKLGGVFHMATDWEAYAEHMLEVMSSIDGYKNLSESNDYVPRPESRPVTKFEQRGHRLGHGVWDLMFERVK", "soluble on expression in E. coli": "not soluble"},
      {"sequence": "MGIKHLNLTVADVVAAREFLEKYFGLTCSGTRGNAFAVMRDNDGFILTLMKGKEVQYPKTFHVGFPQESEEQVDKINQRLKEDGFLVEPPKHAHAYTFYVEAPGGFTIEVMC", "soluble on expression in E. coli": "soluble"},
      {"sequence": "MERYGYCIFCDDIRTEAGGKLSFIGCYNSAMFVTNEFPLSLPKLCVHFNVFSPADQPYKSLRVRCYLPGEDKPIAEESIEVPALQDQINLLTSLPKDQPMMPFIVVAASLIFSPCEIKSPGMIHVRAVINDSPTELHLGSLAVSSQATPQVALEHGPAAIN", "soluble on expression in E. coli": "not soluble"}
    ]}
  ]
}
